In assay [1] the target is βAPP-C100 binding site on NGF-treated PC12 cells. Nature of the assay: competition with 35S-βAPP-C100 for binding to NGF-treated PC12 cells.
Assay [2] shares this target. The assay is described as follows: saturation binding of 35S-βAPP-C100 to NGF-treated PC12 cells, filtration, 4° C.
For assay [3] the target is unchanged. The assay is described as follows: inhibition of 35S-βAPP-C100 binding to NGF-treated PC12 cells by unlabeled βAPP-C100.

By pIC50 is commonly meant the negative decadic logarithm of the IC50, by convention in mol/L. As a reminder, the pKd is the Kd on a negative log10 scale, so that one unit is a factor of ten.

pIC50, pKd: −log10 of the molar value.

On to “Phe687-βAPP-C100 (from UniProt P05067-4) (ligand)”, for which, in assay [1], the pIC50 was less than 7.85 and the times less potent than the native form is greater than 20 times.
The substance “flag-βAPP-C100 (from UniProt P05067-4) (ligand)” had a pKd in assay [2] of 9.09. The substance further gave a pIC50 in assay [3] of 8.77.

Source of the values: patent publication US6083713.
